Laboratory results reported in patent US20120039879A1.

How the values were obtained:
ROBO1 [1] = target: ROBO1 (UniProt Q9Y6N7); assay: ITC, one-site model (OneSites): ROBO1 injected into B5209B mouse-scFv-mcSA414 (3.7 uM) at 25 C in PBS
ROBO1 [2] = target: ROBO1 (UniProt Q9Y6N7); assay: ITC, ROBO1 titrated into B5209B mouse-scFv-mcSA414 (3.7 µM), 25° C., PBS
ROBO1 [3] = target: ROBO1 (UniProt Q9Y6N7); assay: ITC, ROBO1 titrated into B5209B mouse-scFv-mcSA414 (3.7 µM), 25° C., PBS; ITC, 25 C, PBS, ROBO1 titrated into the scFv-mcSA414 tetramer (3.7 uM)
ROBO1 [4] = target: ROBO1 (UniProt Q9Y6N7); assay: ITC, compared with the scFv alone

B1: B5209B mouse-scFv-mcSA414 (protein)
chain: MAEVQLVESGGGVVQPGGSLKLSCAASGFTFSTYDMSWVRQTPDKRLELVATINSNGGSTYYPDSVKGRFTSSRDNAKNILYLQMSSLKSEDTAMYYCAREALLRPPYYALDYWGQGTSVTVSSAGGGGSGGGGSGGGGSDILDIQMTQSPASLSASVGETVTITCGASENIYGALTWYQRKQGKSPQLLIYGAINLADDKSSRFSGSGSGRQYSLKISSLHPDDVATYYCQNVLSTPFTFGSGTKLEIKAAGSSGSGSAAEAGITGTWSNQLGSTFIVTAGADGALTGTYESAVGNAESRYVLTGRYDSAPATDGSGTALGWTVAWKNNSKNAHSATTWSGQYVGGADAKINTQWLLTSGTTQANAWKSTLVGHDTFTKVKPSAASGARHHHHHH
- N (fitted stoichiometry, ROBO1 per scFv-mcSA414 in the cell) (ROBO1 [1]): 0.334
- binding ratio (molecules of ROBO1 per tetramer) (ROBO1 [2]): 2
- enthalpy change (ΔH) (ROBO1 [2]): -3.85 kcal/mol
- entropy change (ΔS) (ROBO1 [2]): -22 J/mol·K
- Kd (ROBO1 [3]): 33 nM
- reduction in affinity compared with scFV (ROBO1 [4]): 10 fold
- ΔS value relative to scFV (ratio to scFV) (ROBO1 [4]): 0.025
